In test [1] the target is T1, FcγRIIIa (human, UniProt P08637 17-208).
T1 construct: extracellular domain; Soluble extracellular domain with a C-terminal His tag; also called FcgRIIIa; 3a; not shown: His tag attached to the C terminus
As to the kind of experiment: SPR; He/Con_3a (FcγRIIIa) divided by He/Con_2b (FcγRIIb). On the technique in general: In SPR one partner is held on a chip, and binding of the other changes the refractive index at the surface.

The target of test [2] is T2, FcγRIIb (human, UniProt P31994 43-217).
T2 construct: extracellular domain; Soluble extracellular domain with a C-terminal His tag, expressed in FreeStyle293 cells; also called FcgRIIb; 2b; not shown: His tag attached to the C terminus
T2 sequence (looked up): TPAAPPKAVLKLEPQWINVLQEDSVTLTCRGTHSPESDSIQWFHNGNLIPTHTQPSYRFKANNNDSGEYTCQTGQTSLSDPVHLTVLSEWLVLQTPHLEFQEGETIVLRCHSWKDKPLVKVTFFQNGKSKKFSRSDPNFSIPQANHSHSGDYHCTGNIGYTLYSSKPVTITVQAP
The test can be described thus: SPR (Biacore), antibody captured on chip, FcγR as analyte.

For test [3], the target named is T1, FcγRIIIa. The description is as above.

We go through eight molecules from patent publication US20150344570A1 (published 2015).

T1 sequence (P08637 17-208): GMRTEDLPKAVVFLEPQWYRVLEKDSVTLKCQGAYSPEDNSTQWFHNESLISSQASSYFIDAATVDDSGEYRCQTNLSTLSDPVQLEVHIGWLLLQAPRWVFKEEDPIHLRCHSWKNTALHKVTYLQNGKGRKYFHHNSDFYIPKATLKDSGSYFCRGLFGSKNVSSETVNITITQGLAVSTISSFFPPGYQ

B1: GpH7-A5/GpH7-B3 variant P238_07I/GpL16-k0 (antibody, human IgG1, kappa)
heavy 1: not shown
heavy 2: not shown
light: DIVMTQSPLSLPVTPGEPASISCQASESLVHSNRNTYLHWYLQKPGQSPQLLIYKVSNRFSGVPDRFSGSGSGTDFTLKISRVEAEDVGVYYCSQNTHVPPTFGQGTKVEIERTVAAPSVFIFPPSDEQLKSGTASVVCLLNNFYPREAKVQWKVDNALQSGNSQESVTEQDSKDSTYSLSSTLTLSKADYEKHKVYACEVTHQGLSSPVTKSFNRGEC
notes: Heterodimerized anti-glypican-3 IgG1; the mutation is in the GpH7-B3 chain only; also called He Ab
B1: the “He_3a/2b (IIIa/IIb)” value in test [1] was 0.35 ratio. Also, the He/Con_2b in test [2] was 80 relative binding, GpH7-A5/GpH7-B3/GpL16-k0 = 100. Also, the He/Con_3a in test [3] was 27.8 relative binding, GpH7-A5/GpH7-B3/GpL16-k0 = 100.

B2: GpH7-A5/GpH7-B3 variant P238_10E/GpL16-k0 (antibody, human IgG1, kappa)
heavy 1: not shown
heavy 2: not shown
light: DIVMTQSPLSLPVTPGEPASISCQASESLVHSNRNTYLHWYLQKPGQSPQLLIYKVSNRFSGVPDRFSGSGSGTDFTLKISRVEAEDVGVYYCSQNTHVPPTFGQGTKVEIERTVAAPSVFIFPPSDEQLKSGTASVVCLLNNFYPREAKVQWKVDNALQSGNSQESVTEQDSKDSTYSLSSTLTLSKADYEKHKVYACEVTHQGLSSPVTKSFNRGEC
notes: as for B1
Consider B2, for which the “He_3a/2b (IIIa/IIb)” value in test [1] stood at 0.45 ratio. For the same molecule, the He/Con_2b in test [2] is 232 relative binding, GpH7-A5/GpH7-B3/GpL16-k0 = 100. For the same molecule, the He/Con_3a in test [3] is 105 relative binding, GpH7-A5/GpH7-B3/GpL16-k0 = 100.

B3: GpH7-A5/GpH7-B3 variant P238_19Q/GpL16-k0 (antibody, human IgG1, kappa)
heavy 1: not shown
heavy 2: not shown
light: DIVMTQSPLSLPVTPGEPASISCQASESLVHSNRNTYLHWYLQKPGQSPQLLIYKVSNRFSGVPDRFSGSGSGTDFTLKISRVEAEDVGVYYCSQNTHVPPTFGQGTKVEIERTVAAPSVFIFPPSDEQLKSGTASVVCLLNNFYPREAKVQWKVDNALQSGNSQESVTEQDSKDSTYSLSSTLTLSKADYEKHKVYACEVTHQGLSSPVTKSFNRGEC
notes: as for B1
As to B3, the “He_3a/2b (IIIa/IIb)” value in test [1] is 0.51 ratio. Moreover, the He/Con_2b in test [2] is 110 relative binding, GpH7-A5/GpH7-B3/GpL16-k0 = 100. Further, the He/Con_3a in test [3] is 55.8 relative binding, GpH7-A5/GpH7-B3/GpL16-k0 = 100.

B4: GpH7-A5/GpH7-B3 variant P238_18N/GpL16-k0 (antibody, human IgG1, kappa)
heavy 1: not shown
heavy 2: not shown
light: DIVMTQSPLSLPVTPGEPASISCQASESLVHSNRNTYLHWYLQKPGQSPQLLIYKVSNRFSGVPDRFSGSGSGTDFTLKISRVEAEDVGVYYCSQNTHVPPTFGQGTKVEIERTVAAPSVFIFPPSDEQLKSGTASVVCLLNNFYPREAKVQWKVDNALQSGNSQESVTEQDSKDSTYSLSSTLTLSKADYEKHKVYACEVTHQGLSSPVTKSFNRGEC
notes: as for B1
For the molecule B4, the “He_3a/2b (IIIa/IIb)” value in test [1] is 0.55 ratio. The He/Con_2b in test [2] is 73.2 relative binding, GpH7-A5/GpH7-B3/GpL16-k0 = 100. Further, in test [3], the He/Con_3a was 40.4 relative binding, GpH7-A5/GpH7-B3/GpL16-k0 = 100.

B5: GpH7-A5/GpH7-B3 variant S239_04F/GpL16-k0 (antibody, human IgG1, kappa)
heavy 1: not shown
heavy 2: not shown
light: DIVMTQSPLSLPVTPGEPASISCQASESLVHSNRNTYLHWYLQKPGQSPQLLIYKVSNRFSGVPDRFSGSGSGTDFTLKISRVEAEDVGVYYCSQNTHVPPTFGQGTKVEIERTVAAPSVFIFPPSDEQLKSGTASVVCLLNNFYPREAKVQWKVDNALQSGNSQESVTEQDSKDSTYSLSSTLTLSKADYEKHKVYACEVTHQGLSSPVTKSFNRGEC
notes: as for B1
With B5, the “He_3a/2b (IIIa/IIb)” value in test [1] came out at 0.57 ratio. Also, in test [2], the He/Con_2b is 44.1 relative binding, GpH7-A5/GpH7-B3/GpL16-k0 = 100. Also, the He/Con_3a in test [3] was 25.3 relative binding, GpH7-A5/GpH7-B3/GpL16-k0 = 100.

B6: GpH7-A5/GpH7-B3 variant P238_11K/GpL16-k0 (antibody, human IgG1, kappa)
heavy 1: not shown
heavy 2: not shown
light: DIVMTQSPLSLPVTPGEPASISCQASESLVHSNRNTYLHWYLQKPGQSPQLLIYKVSNRFSGVPDRFSGSGSGTDFTLKISRVEAEDVGVYYCSQNTHVPPTFGQGTKVEIERTVAAPSVFIFPPSDEQLKSGTASVVCLLNNFYPREAKVQWKVDNALQSGNSQESVTEQDSKDSTYSLSSTLTLSKADYEKHKVYACEVTHQGLSSPVTKSFNRGEC
notes: as for B1
In the case of B6, in test [1], the “He_3a/2b (IIIa/IIb)” value worked out at 0.57 ratio. In addition, the He/Con_2b in test [2] was 18.1 relative binding, GpH7-A5/GpH7-B3/GpL16-k0 = 100. In addition, the He/Con_3a in test [3] is 10.4 relative binding, GpH7-A5/GpH7-B3/GpL16-k0 = 100.

B7: GpH7-A5/GpH7-B3 variant S239_01G/GpL16-k0 (antibody, human IgG1, kappa)
heavy 1: not shown
heavy 2: not shown
light: DIVMTQSPLSLPVTPGEPASISCQASESLVHSNRNTYLHWYLQKPGQSPQLLIYKVSNRFSGVPDRFSGSGSGTDFTLKISRVEAEDVGVYYCSQNTHVPPTFGQGTKVEIERTVAAPSVFIFPPSDEQLKSGTASVVCLLNNFYPREAKVQWKVDNALQSGNSQESVTEQDSKDSTYSLSSTLTLSKADYEKHKVYACEVTHQGLSSPVTKSFNRGEC
notes: Heterodimerized anti-glypican-3 IgG1; also called He Ab
Turning to B7, the “He_3a/2b (IIIa/IIb)” value in test [1] came out at 0.53 ratio. For the same molecule, the He/Con_2b in test [2] was 144 relative binding, GpH7-A5/GpH7-B3/GpL16-k0 = 100. In addition, the He/Con_3a in test [3] was 76.2 relative binding, GpH7-A5/GpH7-B3/GpL16-k0 = 100.

B8: GpH7-A5/GpH7-B3 variant S239_05P/GpL16-k0 (antibody, human IgG1, kappa)
heavy 1: not shown
heavy 2: not shown
light: DIVMTQSPLSLPVTPGEPASISCQASESLVHSNRNTYLHWYLQKPGQSPQLLIYKVSNRFSGVPDRFSGSGSGTDFTLKISRVEAEDVGVYYCSQNTHVPPTFGQGTKVEIERTVAAPSVFIFPPSDEQLKSGTASVVCLLNNFYPREAKVQWKVDNALQSGNSQESVTEQDSKDSTYSLSSTLTLSKADYEKHKVYACEVTHQGLSSPVTKSFNRGEC
notes: as for B1
As to B8, the “He_3a/2b (IIIa/IIb)” value in test [1] amounted to 0.15 ratio. For the same molecule, the He/Con_2b in test [2] is 102 relative binding, GpH7-A5/GpH7-B3/GpL16-k0 = 100. In addition, the He/Con_3a in test [3] was 14.9 relative binding, GpH7-A5/GpH7-B3/GpL16-k0 = 100.
